Data: patent US20210380994A1, “LACTOCOCCUS LACTIS EXPRESSION SYSTEM FOR DELIVERING PROTEINS EFFICACIOUS FOR THE TREATMENT OF EPITHELIAL BARRIER FUNCTION DISORDERS” (Second Genome, Inc., priority 2018, published 2021)

B1: SG-11V5: variant of SEQ ID NO:7 with N53S, N83S, C147V, C151S (protein)
chain: MLEGEESVVYVGKKGVIASLDVETLDQSYYDETELKSYVDAEVEDYTAEHGKSAVKVESLKVEDGVAKLKMKYKTPEDYTAFSGIELYQGKVVASLAAGYVYDGEFARVEEGKVVGAATKQDIYSEDDLKVAIIRANTDVKVDGEIVYVSSQNVKLTGKDSVSIRDGYYLETGSVTASVDVTGQESVGTEQLSGTEQMEMTGEPVNADDTEQTEAAAGDGSFETDVYTFIVYK
modifications: Artificial variant of SG-11 (N53S, N83S, C147V, C151S)
B2: SG-11: Roseburia hominis protein comprising SEQ ID NO:3; tested as SEQ ID NO:5, SEQ ID NO:7 or FLAG-tagged SEQ ID NO:9 (protein, listed as Rosburia hominis)
chain: LEGEESVVYVGKKGVIASLDVETLDQSYYDETELKSYVDAEVEDYTAEHGKNAVKVESLKVEDGVAKLKMKYKTPEDYTAFNGIELYQGKVVASLAAGYVYDGEFARVEEGKVVGAATKQDIYSEDDLKVAIIRANTDVKVDGEICYVSCQNVKLTGKDSVSIRDGYYLETGSVTASVDVTGQESVGTEQLSGTEQMEMTGEPVNADDTEQTEAAAGDGSFETDVYTFIVYK

Test system: C57BL/6 mice treated with DSS
Test: concurrent (prophylactic) DSS model of inflammatory bowel disease (Examples 4, 13A)
Format: in vivo
Settings: for 4KDa-FITC signal in serum: Example 13, first model, SG-11 (SEQ ID NO:9) 50 nmoles/kg i.p. b.i.d. (FIG. 18A, p=0.04), SG-11V5 (printed FIG. 18B, p=0.21)
Procedure: On day six, mice were fasted for four hours and then orally gavaged with 600 mg/kg 4KDa dextran labeled with fluorescein isothiocyanate (FITC) [4KDa-FITC]. One hour after the 4KDa-FITC gavage, mice were euthanized, blood was collected, and FITC signal was measured in serum. […] The magnitude of 4KDa-FITC dextran translocation observed for SG-11 was similar to the positive control of Gly2-GLP2. Results are shown in FIG. 3, and are presented as mean±SEM. The graph in FIG. 3 represents data pooled from 3 independent experiments, each using 10 mice (n=30).
SG-11 was also assessed for its effects on the levels of lipopolysaccharide (LPS) binding protein (LBP) in the blood of the DSS animal with and without SG-11 administration. LBP, which has been linked to clinical disease activity in subjects with inflammatory bowel disease, was also measured by […] in the serum of mice tested in the DSS model described in this Example. […] Results are shown in FIG. 4, and are presented as mean±SEM. The graph in FIG. 4 represents data pooled from 3 independent experiments (n=30; each experiment using 10 mice).
Body weight was measured daily from mice included in the DSS model described in this Example. Percent change from starting weight on day 0 was determined for each mouse. […] Weight loss in mice treated with SG-11 at day 6 was similar to weight loss observed with Gly2-GLP2. The graph in FIG. 5 represents data pooled from two independent experiments (n=20; each experiment using 10 mice).
Gross pathology observations were made in mice included in the concurrent DSS model performed in this Example. […] No differences in clinical scores were observed between mice given DSS and treated with either Gly2-GLP2 or SG-11. The scoring system used was: (0)=no gross pathology, (1)=streaks of blood visible in feces, (2)=completely bloody fecal pellets, (3) bloody fecal material visible in cecum, (4) bloody fecal material in cecum and loose stool, (5)=rectal bleeding. The graph in FIG. 6 represents data pooled from 3 independent experiments (n=30; each experiment using 10 mice).
In addition, histopathology analysis was performed on proximal and distal colon tissues from the DSS model animals. […] LMA Loss of mucosal architecture, Edema=Edema, INF=Inflammation. TMI=Transmural inflammation, MH=Mucosal hyperplasia, DYS=Dysplasia. Graphs represent data pooled from two independent experiments, and are plotted as mean±SEM. Statistical analysis was performed by a one-way ANOVA compared to DSS+vehicle followed by a Fisher's LSD test for multiple comparisons.
Colon length was measured in mice included in the DSS model described above. […] The graphs in FIGS. 8A and 8B represent data pooled from 3 independent experiments (n=30). Data are graphed as mean SEM and are pooled from three independent experiments (n=30; each experiment using 10 mice). Statistical analysis was performed by a one-way ANOVA followed by a Fisher's LSD multiple comparisons test.
Briefly, in the first DSS mouse model (Example 13A), mice were treated on day zero with test compound intraperitoneally (i.p.) and 6 hours later DSS treatment was initiated. Doses administered included 50 nmoles/kg for SG-11 (SEQ ID NO:9) ([…]), and Gly2-GLP2 (0.2 mg/kg), and a dose response for SG-11V5 (SEQ ID NO:19) including 16 nmoles/kg ([…]), 50 nmoles/kg ([…]) and 158 nmoles/kg (4.0 mg/kg). […] Therapeutic protein treatments were administered twice a day for the duration of the DSS exposure.
At the end of each DSS model study, mice were fasted for 4 hours and then orally gavaged with 600 mg/kg 4KDa dextran labeled with FITC [4KDa-FITC]. One hour after the 4KDa-FITC gavage, mice were euthanized, blood was collected, and FITC signal was measured in serum. […] Data in both graphs are plotted as mean±SEM and each figure represent data from an individual experiment (n=10 per group).
Upon completion of the OSS models above. […]

[1] = Example 4, 50 nmoles/kg i.p. b.i.d.
[2] = Example 4, 50 nmoles/kg i.p. b.i.d., vs DSS + vehicle

Molecule	4KDa-FITC signal in serum	gross pathology (clinical score 0-5) (Example 13, 160 nmoles/kg dose, p<0.002)	colon length (Example 13A (FIG. 22A))	body weight (Example 13A, 158 nmoles/kg, day 6)	serum LBP (Example 13A, 158 nmoles/kg, p=0.003)	colon length [1]	colon weight to length ratio [1]	histopathology: edema score of colon [1]	4KDa-FITC dextran translocation across the epithelial barrier (serum) (Example 4, 50 nmoles/kg i.p. b.i.d., 2.5% DSS 6 days, vs DSS + vehicle)	body weight [2]	gross pathology (clinical score 0-5) [2]	serum LPS binding protein (LBP) concentration [2]
B1	reduced the 4KDa-FITC signal, although the difference did not reach statistical significance	significant improvement	significant increase in the colon length	significant improvement in body weight	significant reduction in LBP production	–	–	–	–	–	–	–
B2	significantly reduced the 4KDa-FITC signal	–	significant increase in the colon length	–	–	prevented colon shortening elicited by DSS	significant improvement in colon weight to length ratios	reduced edema to a similar level as Gly2-GLPs, though the difference did not reach statistical significance	significant reduction in 4KDa-FITC dextran	significantly improved body weight	significantly improved gross pathology	significant reduction in LBP
